# Measurements published in US20210155689A1 (SHANGHAI PHARMAEXPLORER, published 2021).
# T1: LAG-3-hFc protein (human LAG-3 extracellular region with hFc tag) (human, UniProt P18627 23-450)
# T1 construct: also called hLAG-3-hFc; LAG-3 protein; not shown: human IgG Fc fragment (hFc) of the pCpC vector
# T1 sequence: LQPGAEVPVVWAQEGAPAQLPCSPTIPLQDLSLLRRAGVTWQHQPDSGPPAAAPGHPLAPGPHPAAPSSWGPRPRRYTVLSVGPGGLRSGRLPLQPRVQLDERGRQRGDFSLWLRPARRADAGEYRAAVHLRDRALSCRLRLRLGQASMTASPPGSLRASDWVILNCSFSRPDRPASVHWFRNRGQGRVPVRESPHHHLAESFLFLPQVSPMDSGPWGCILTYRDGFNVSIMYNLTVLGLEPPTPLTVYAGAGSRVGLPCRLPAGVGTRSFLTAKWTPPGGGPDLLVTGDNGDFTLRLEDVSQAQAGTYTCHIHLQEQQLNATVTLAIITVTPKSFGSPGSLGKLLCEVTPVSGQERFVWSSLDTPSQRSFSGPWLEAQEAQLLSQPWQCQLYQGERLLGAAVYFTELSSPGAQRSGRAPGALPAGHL
# T2: monkey LAG-3 on cells (HEK293-cLAG-3 stable cell line) (monkey, UniProt P18627 24-525 (human entry))
# T2 construct: Full-length monkey (Chinese monkey) LAG-3 gene expressed on HEK293 cells
# T2 chain: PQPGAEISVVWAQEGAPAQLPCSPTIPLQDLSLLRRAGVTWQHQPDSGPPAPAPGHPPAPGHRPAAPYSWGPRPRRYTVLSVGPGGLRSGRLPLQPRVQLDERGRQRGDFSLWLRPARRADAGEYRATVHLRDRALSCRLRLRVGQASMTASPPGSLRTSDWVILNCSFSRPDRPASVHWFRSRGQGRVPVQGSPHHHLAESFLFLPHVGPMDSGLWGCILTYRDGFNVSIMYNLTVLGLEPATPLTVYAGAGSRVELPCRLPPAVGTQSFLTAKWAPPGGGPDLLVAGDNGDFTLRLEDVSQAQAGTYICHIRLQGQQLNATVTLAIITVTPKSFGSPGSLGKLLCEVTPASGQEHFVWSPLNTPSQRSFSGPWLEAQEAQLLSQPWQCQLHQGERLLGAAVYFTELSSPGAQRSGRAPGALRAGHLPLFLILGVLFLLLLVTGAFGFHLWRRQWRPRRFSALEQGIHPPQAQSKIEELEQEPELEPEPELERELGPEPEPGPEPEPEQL
# T3: hFc tagged monkey LAG-3 protein (cLAG-3-hFc protein) (monkey; human)
# T3 construct: Made in HEK293 cells; also called monkey LAG-3 extracellular domain protein; not shown: human IgG Fc fragment (hFc) of the pCpC vector
# T3 chain: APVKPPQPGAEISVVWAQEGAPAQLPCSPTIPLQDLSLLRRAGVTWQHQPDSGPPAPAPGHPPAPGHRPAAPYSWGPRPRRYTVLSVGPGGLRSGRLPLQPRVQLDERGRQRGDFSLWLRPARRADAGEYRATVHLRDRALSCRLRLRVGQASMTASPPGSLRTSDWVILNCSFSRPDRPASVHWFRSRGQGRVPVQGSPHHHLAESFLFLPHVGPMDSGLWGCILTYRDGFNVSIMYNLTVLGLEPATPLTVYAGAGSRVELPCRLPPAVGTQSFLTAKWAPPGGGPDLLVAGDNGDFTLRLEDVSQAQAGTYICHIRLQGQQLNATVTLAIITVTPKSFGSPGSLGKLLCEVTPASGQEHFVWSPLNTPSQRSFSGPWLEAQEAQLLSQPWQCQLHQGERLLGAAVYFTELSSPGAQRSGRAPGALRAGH
# Assays:
# [1] = target: T1, LAG-3-hFc protein (human LAG-3 …); assay: FACS, inhibition of LAG-3-hFc binding to MHC II on Raji cells, antibody 200.000 nM
# Description: The FACS reaction plate incubating the Raji cells was centrifuged to discard the supernatant. The above mixture was added as 100 μl per well to Raji cells and incubated on ice for 1-2 hours. The plate was washed twice with blocking solution (PBS, 2% fetal bovine serum) by centrifugation, added with 100 microliters of fluorescent (Alexa 488)-labeled secondary antibodies per well, and incubated on ice for 1.0 hours. The plate was washed 2-3 times by centrifugation with blocking solution (PBS, 2% fetal bovine serum), added with 100 microliters of PBS per well to suspend cells, and detected using FACS (FACS Calibur, BD) and the results were analyzed. Wherein, the IgG control was murine IgG, and the data in the table is the inhibition rate (%).
# [2] = target: T2, monkey LAG-3 on cells (HEK293-cLAG-3 …); assay: FACS, HEK293-cLAG-3, antibody 40.000 nM
# Source text: The pIRES plasmid with the monkey-derived full-length gene was transfected into the HEK293 cell line to construct a HEK293 stable cell line containing monkey LAG-3 (herein referred to as HEK293-cLAG-3 stable cell line). The HEK293-hLAG-3 stable cell line and HEK293-cLAG-3 stable cell line were expanded in a T-75 cell culture flask to a 90% confluence. The medium was aspirated, and the cells were washed with HBSS (Hanks' Balanced Salt Solution) 1-2 times, then treated with a enzyme-free cell dissociation fluid (Versene solution: Life technology) and the cells were collected. The cells were washed with HBSS buffer for 1-2 times. After counted, the cells were diluted with HBSS to 1-2×10⁶ cells per ml, added with 1% goat serum blocking solution, incubated on ice for 20-30 minutes, and then washed with HBSS for 2 times by centrifugation. The collected cells were suspended in the FACS buffer (HBSS+1% BSA) to 2×10⁶ cells/ml, added as 100 microliters per well to a 96-well FACS reaction plate, added with 100 microliters per well of the antibody sample to be tested, incubated on ice for 1-2 hours. The plate was washed twice with the FACS buffer by centrifugation, added with 100 microliters of fluorescent (Alexa 488)-labeled secondary antibodies per well, and incubated on ice for 0.5-1.0 hours. The plate was washed 2-3 times with FACS buffer by centrifugation, added with 100 μl fixative solution (4% Paraformaldehyde) per well to suspend the cells. 5-10 minutes later, it was washed 1-2 times with FACS buffer by centrifugation. The cells were suspended with 100 microliters of FACS buffer, FACS (FACSCalibur, BD) was used for detection and the results were analyzed.
# [3] = target: T3, hFc tagged monkey LAG-3 protein …; assay: ELISA, cLAG-3-hFc coated; 0.6667 nM
# Description: The plate was sealed with plastic film and incubated overnight at 4° C. The plate was washed 2 times with the plate washing solution (PBS+0.01% Tween20) on the next day, and added with the blocking solution (PBS+0.01% Tween20+1% BSA) and blocked at room temperature for 1-2 hours. The blocking solution was poured out, and the plate was added with 50-100 μl of the antibody sample to be tested to each well, incubated at 37° C. for 1-2 hours, and washed 2-3 times with a plate washing solution (PBS+0.01% Tween20). HRP (horseradish peroxidase) labeled secondary antibody was added, and the plate was incubated at 37° C. for 1-2 hours, and washed 2-3 times with a plate washing solution (PBS+0.01% Tween20). 100 μl of TMB substrate was added to each well. After incubated at room temperature for 15-30 minutes, the plate was added with 100 μl of stop solution (1.0N HCl) to each well.
Binder,Inhibition rate (%) [1] [%],Mean fluorescence intensity [2],OD450 [3] [OD450]
"105F1E10 mouse-human chimeric antibody (antibody, V domains shown, also called mAb009-105F1E10) VH: EVQLQQSGPELVKPGASVKMSCRASGYTFTDFKMHWMKQSHGKSLEWIGYIAPNNGGTAYNQKFRGKATLTVNESSNTAYMELRSLTSEDSAVYYCVDWDDVDYWGQGTTLTVSS VL: DIKMTQSPSSMYASLGERVTITCKASQDINSYLSWFQQKSGKSPKTLIYRANRLVDGVPSRFSGSGSGQDYSLTISSLEYEDMGIYYCLQYVEFPLTFGAGTKLELK",96,64.6,–
"405B8H3 mouse-human chimeric antibody (antibody, V domains shown, also called mAb103-405B8H3) VH: QVQLQQSGAELVRPGASVTLSCKASGYTFTDYEMHWVKQTPVHGLEWIGATDPETGNSAYNQKFKGKAIMTADKSSSTAYMELRSLTSEDSAVYYCISTGWNDWGQGTSLTVSS VL: DIKMTQSPSSMYASLGERVTITCKASQDINSYLSWFQQKPGKSPKTLIYRADRLLDGVPSRFSGSGSGQDYSLTISSLEYGDMGIYYCLQYDEFPYTFGGGTKLEIK",95.2,90.8,–
"405B8H3 (LAG-3 mouse-human chimeric antibody) (antibody, V domains shown, also called mouse-human chimeric antibody 405B8H3) VH: QVQLQQSGAELVRPGASVTLSCKASGYTFTDYEMHWVKQTPVHGLEWIGATDPETGNSAYNQKFKGKAIMTADKSSSTAYMELRSLTSEDSAVYYCISTGWNDWGQGTSLTVSS VL: DIKMTQSPSSMYASLGERVTITCKASQDINSYLSWFQQKPGKSPKTLIYRADRLLDGVPSRFSGSGSGQDYSLTISSLEYGDMGIYYCLQYDEFPYTFGGGTKLEIK",–,–,3.39
"105F1E10 (LAG-3 mouse-human chimeric antibody) (antibody, V domains shown) VH: EVQLQQSGPELVKPGASVKMSCRASGYTFTDFKMHWMKQSHGKSLEWIGYIAPNNGGTAYNQKFRGKATLTVNESSNTAYMELRSLTSEDSAVYYCVDWDDVDYWGQGTTLTVSS VL: DIKMTQSPSSMYASLGERVTITCKASQDINSYLSWFQQKSGKSPKTLIYRANRLVDGVPSRFSGSGSGQDYSLTISSLEYEDMGIYYCLQYVEFPLTFGAGTKLELK",–,–,3.38
"409B11E12 mouse-human chimeric antibody (antibody, V domains shown, also called mAb104-409B11E12) VH: QVQLQQSGAELVRPGASVTLSCKASGYTFTDYEMHWVKQTTVHGLEWIGATDPETSYSAYNQKFKGKAILTADKSSSTAYMELRSLTSEDSAVYYCIATGWNDWGQGTSLTVSS VL: DLKMTQSPSSMYASLGERVTITCKASQDINSYLSWFQQKPGKSPKTLIYRANRLLDGVPSRFSGSGSGQDYSLTISSLEYEDMGIYYCLQYDEFPYTFGGGTKLEIK",94.8,108,–
"409B11E12 (LAG-3 mouse-human chimeric antibody) (antibody, V domains shown) VH: QVQLQQSGAELVRPGASVTLSCKASGYTFTDYEMHWVKQTTVHGLEWIGATDPETSYSAYNQKFKGKAILTADKSSSTAYMELRSLTSEDSAVYYCIATGWNDWGQGTSLTVSS VL: DLKMTQSPSSMYASLGERVTITCKASQDINSYLSWFQQKPGKSPKTLIYRANRLLDGVPSRFSGSGSGQDYSLTISSLEYEDMGIYYCLQYDEFPYTFGGGTKLEIK",–,–,3.36
"409D4E10 mouse-human chimeric antibody (antibody, V domains shown, also called mAb112-409D4E10) VH: QVQLQQSGAELVRPGASVTLSCKASGNTFTDYEMHWVKQTPVHGLEWIGATDPETDNTAYNQKFKGKAILTTDKSSSTAYMELRSLTSEDSAVYYCITSGWNDWGQGTSLTVSS VL: DIKMTQSPSSMYASLGERVTITCKASQDINSYLSWFQQKPGKSPKTLIYRANRLLDGVPSRFSGSGSGQDYSLTISSLEYEDMGIYYCLQYNEFPYTFGGGTKLEIK",95.7,93.4,–
"409D4E10 (LAG-3 mouse-human chimeric antibody) (antibody, V domains shown) VH: QVQLQQSGAELVRPGASVTLSCKASGNTFTDYEMHWVKQTPVHGLEWIGATDPETDNTAYNQKFKGKAILTTDKSSSTAYMELRSLTSEDSAVYYCITSGWNDWGQGTSLTVSS VL: DIKMTQSPSSMYASLGERVTITCKASQDINSYLSWFQQKPGKSPKTLIYRANRLLDGVPSRFSGSGSGQDYSLTISSLEYEDMGIYYCLQYNEFPYTFGGGTKLEIK",–,–,3.78
"556F6B8 mouse-human chimeric antibody (antibody, V domains shown, also called mAb123-556F6B8; 556F8B8) VH: RVQLKQSGPGLVQPSQSLSITCTVSGFSLIKYGVHWVRQSPGEGLEWLGVIWRGGITDYNAAFMSRLSITKDNSKSQVFFKMNSLQADDTAIYYCAKWDGPLAMDYWGQGTSVTVSS VL: DIVMTQSHKFLSTSVGDRVSITCKASQDVGTTVAWYQQKPGQSPKLLIYWASTRHTGVPDRFTGSGSGTDFTLTISNVQSEDLADYFCQQYSSYPYTFGGGTKLEIK",95.2,74.4,–
"556F6B8 (LAG-3 mouse-human chimeric antibody) (antibody, V domains shown, also called 556F8B8) VH: RVQLKQSGPGLVQPSQSLSITCTVSGFSLIKYGVHWVRQSPGEGLEWLGVIWRGGITDYNAAFMSRLSITKDNSKSQVFFKMNSLQADDTAIYYCAKWDGPLAMDYWGQGTSVTVSS VL: DIVMTQSHKFLSTSVGDRVSITCKASQDVGTTVAWYQQKPGQSPKLLIYWASTRHTGVPDRFTGSGSGTDFTLTISNVQSEDLADYFCQQYSSYPYTFGGGTKLEIK",–,–,3.7
